From the supplement of paper PMC9170038

Tested on: MS2 coat protein
Experiment: apparent KD of MS2 coat protein; designed switch direction (-1 OFF switch, 1 ON switch): 1; higher = weaker reporter binding
In short: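 Stalled E. coli RNA polymerase transcribed designed RNA switches on Illumina chips, which were then titrated with SNAP-549-labelled MS2 coat protein, doubling from 0.7 or 1.5 nM to 3 µM. Steps lasted from 0.8–1.5 h at the lowest concentration to 10–20 min at the highest. The apparent KD is each design's median over clusters of curve-fitted normalised fluorescence.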

[1] = input ligand: microRNA oligo, concentration not stated
[2] = Eterna round: R95, input ligand: FMN 200 uM
[3] = Eterna round: R95, input ligand: microRNA oligo, concentration not stated
[4] = Eterna round: R95, input ligand: none

Sequence | apparent KD of MS2 coat protein (input ligand: FMN 200 uM) | apparent KD of MS2 coat protein [1] | apparent KD of MS2 coat protein (input ligand: none) | apparent KD of MS2 coat protein [2] | apparent KD of MS2 coat protein [3] | apparent KD of MS2 coat protein [4]
UUUUUUAUCGUAGGAUAUAGGUUGAAUAAUAGACUAGAAGGACGUCACAUGAGGAUCACCCAUGUUUUUUAAGUGUCGAAGUGU [JR_SSNG1_Sub040] (Eterna round: R96, puzzle: Same State NG 1) | 31.3 nM | 23 nM | 29.4 nM |  |  | 
GCCAACUAAUGAGGAUAUGGCACCUUAUUGGUGCCAGAAGGCAUGUCAAUUGACAUGAGGAUCACCCAUGUAUUAUAGUUGGCG [salish99_SSNG1_r04_601] (Eterna round: R96, puzzle: Same State NG 1) |  | 438 nM |  |  |  | 
GACCGCGAGGAAGGAUAUGGAGCCUAAUAGGCUCCAGAAGGUCCAUAAAGGACAUGAGGAUCACCCAUGUGGGCUGAAGCGGUC [Mat - Same State NG 1 - JL mod - D74] (Eterna round: R96, puzzle: Same State NG 1) | 18.3 nM | 21.4 nM | 34.7 nM |  |  | 
GAGAGAGGGCGAGGAUAUUCGGUGAUAAUGAUGGAAGAAGGCGCAGACAUGAGGAUCACCCAUGUGGGAAUAAUCCAGAGAGAG [Parity 14 - Jieux - Same State NG 1] (Eterna round: R96, puzzle: Same State NG 1) | 206 nM | 101 nM | 131 nM |  |  | 
AUGCCAAAUGGAGGAUAUGGAGCCUUAUUGGCUCCAGAAGGUCAGACAUGAGGAUCACCCAUGUGGCAGUGGUCUAAUGACCAC [Eli NG1ss - 39] (Eterna round: R96, puzzle: Same State NG 1) | 126 nM | 392 nM | 638 nM |  |  | 
UCGAGCGUACUUGCAGACAUGAGGAUCACCCAUGUAAAUGGGAAGGAUAUGGUACCGUUUCGGUACCAGAAGGUCCUACGUGCU [salish99_SSNG3_r04_305] (Eterna round: R96, puzzle: Same State NG 3) | 325 nM | 48.8 nM | 144 nM |  |  | 
CUUUAUCACUAUACAUGAGGAUCACCCAUGUUAUCAUCAUGAGAGGAUAUCGUAUUUGGAUUUUUCGAGAAGGCUCUUUUGUAU [JR_SSNG3_Sub076] (Eterna round: R96, puzzle: Same State NG 3) |  | 90.4 nM |  |  |  | 
GGUGGGUUGCUACCAACACAUGAGGAUCACCCAUGUUUUGGGAAGGAUAUGGUACCUAUUUGGUACCAGAAGGUCCCGUUGGUG [salish99_SSNG3_r04_706] (Eterna round: R96, puzzle: Same State NG 3) | 37.6 nM | 40.4 nM | 63.6 nM |  |  | 
GUGAAGAAUUAAGGAUAUCGAGUCAAGAUGUUAAACAUGAGGAUCACCCAUGUGGGUUGCGGUAUCGAGAAGGUAAAUUACAAG [salish99_SSNG2_r04_501] (Eterna round: R96, puzzle: Same State NG 2) | 26.7 nM | 25.9 nM | 31.4 nM |  |  | 
UCUUGGUUUUUGCUCGUUUUUUGUGUUGAACAUGAGGAUCACCCAUGUAUUGUACGGUCCGGUUUAGUAAUGGUCCG [JMF 11] (puzzle: Sensor for hsa-mir-208a) |  |  |  | 24.8 nM | 15.1 nM | 25 nM
GCCCAUAGUAUAUGGGUACAAGCUUUUUGACAUGAGGAUCACCCAUGUACUCGUCUUAUGUGCAGUCCGUAGACUGC [JL-shm-2.18 Brourd mod] (puzzle: Sensor for hsa-mir-208a) |  |  |  | 61.9 nM | 15.3 nM | 66.6 nM
GUAGCAUACCGAGGAUAUUCAUACAUGAGGAUCACCCAUGUUAUUAUAGGCCGAUUACGGCCUUGGGAGAAGGCGGAAUGCUAC [Xeonanis - 20 Mod28] (Eterna round: R96, puzzle: Same State NG 2) | 13.1 nM | 11.4 nM | 16.1 nM |  |  | 
UUAAUGAUGAUAGGAUAUACAUGAGGAAUUCUCGUAGAAGGAUCAUGACAUGAGGAUCACCCAUGUAUCGCUCGAAAGAGCGUA [Mat - Same State NG 1 - JL mod - D33] (Eterna round: R96, puzzle: Same State NG 1) | 570 nM | 234 nM | 205 nM |  |  | 
GAUAAACAUGAGGAUCACCCAUGUGUGAAUAUGGGAGGAUAUACGUGGACCGUAGUCCGCGUAGAAGGCCUAAUUG [Mat - Same State 1 - Mod of JL - D20] (puzzle: Same State 1) |  |  |  |  | 166 nM | 
GUUAUACAUGAGGAUCACCCAUGUCAAUGUAGUCGAGGAUAUGGGCAGCUAUGAGGCGUACUAGAAGGCGAGAAGU [Mat - Same State 1 - Mod of JL - D15] (puzzle: Same State 1) |  |  |  | 125 nM | 268 nM | 437 nM
AACAAUCUAUCUCAGGAUAUCAUGUCAAAGACAUGAGGAUCACCCAUGUACCAGGAAACUGGUUAUGAGAAGGGAGAUAGAUUGG [Mat - Same State 2 - Mod - D28] (puzzle: Same State 2) |  |  |  | 161 nM | 438 nM | 197 nM

Sequence | apparent KD of MS2 coat protein (input ligand: FMN 200 uM) | apparent KD of MS2 coat protein [1] | apparent KD of MS2 coat protein (input ligand: none) | apparent KD of MS2 coat protein [2] | apparent KD of MS2 coat protein [3] | apparent KD of MS2 coat protein [4]
GCUCGGAUGAUGACCCACAUGAGGAUCACCCAUGUGCGUGGGCAGGAUAUCUAGAUUAAGGAUGUAGAGAAGGGUCUACCGAGC [SameState NG3 #31] (Eterna round: R96, puzzle: Same State NG 3) | 964 nM | 318 nM | 407 nM |  |  | 
GGCAUGCGGCGUACCGUAUGCUGGUAUGUACAUGAGGAUCACCCAUGUCAUGUACAGGCUUUUUGCUCGUCUUAUUG [JL-shm-2.40 JL mod] (puzzle: Sensor for hsa-mir-208a) |  |  |  | 128 nM | 28.7 nM | 157 nM
AAACUAGGCGGUCCAACAUGAGGAUCACCCAUGUAAAAUUCAUAGGAUAUGCCUAUAGAAACAAGGCAGAAGGGUGAGACCGCA [Atsoorle] (Eterna round: R96, puzzle: Same State NG 3) | 68.6 nM | 93.7 nM | 134 nM |  |  | 
AUCCUAAACACAGGAUAUCCCAGUCAUGAUCUGGGAGAAGGGUGGCCACAUGAGGAUCACCCAUGUGAAGUGCCAGAGGCACGA [MOD3 Xexeraed] (Eterna round: R96, puzzle: Same State NG 1) | 397 nM | 359 nM | 582 nM |  |  | 
CAGCGCUGUCGAGAGGAUAUGCGGUGAUGGACAUGAGGAUCACCCAUGUUAGCGAUAGCAUUACUGUAGAAGGCUCUACAGCUGC [JL-ss2-3.08 ViennaUCT mod] (puzzle: Same State 2) |  |  |  |  | 24.3 nM | 
GUGGUCAGACAUGAGGAUCACCCAUGUGGAAUAAAUAACGGACAGGAUAUCGAAUAUAGGAUAUACGAGAAGGGUUGAUUGGUG (Eterna round: R96, puzzle: Same State NG 3) |  | 53.9 nM |  |  |  | 
AGUCCAGCGAGAGCUGGACAAAAGCAUGUACAUGAGGAUCACCCAUGUCAUGUACAAGCUUUUUGCUCGUCUUAAAA [Mat - hsa-mir-208a - Mod of JL - D5] (puzzle: Sensor for hsa-mir-208a) |  |  |  | 332 nM | 13.5 nM | 618 nM
GCCGCGUUUCGCGCCUACAUGAGGAUCACCCAUGUUUGUGGGCAGGAUAUCGUCCGCUCUGCGGGCGAGAAGGGCUGUUGUGGU [salish99_SSNG3_R04_026] (Eterna round: R96, puzzle: Same State NG 3) |  | 40.9 nM |  |  |  | 
AUUAAACAUGAGGAUCACCCAUGUCAACAAUGUCGAGGAUAUGGGCAAAUAAAAUAAGAACCAGAAGGCGAAUAAU [salish99_ss1_r3_076] (puzzle: Same State 1) |  |  |  | 39.9 nM | 426 nM | 303 nM
GCGAAGAGGUAAGGAUAUGCAUGGCGGAGACAUGAGGAUCACCCAUGUUGGAGACGAAAUCUAGGGUAGAAGGUACCAGGAAGC [AK SSNG2-V2-12] (Eterna round: R96, puzzle: Same State NG 2) | 61.9 nM | 52.6 nM | 72.1 nM |  |  | 
GCUAGGAAAUAAGCCAACAUGAGGAUCACCCAUGUAUGUUGGUAGGAUAUCGUAUGCAAAGCAUACGAGAAGGGCUAACCUAGC [Mat - Same State NG 3 - JL Mod - D71] (Eterna round: R96, puzzle: Same State NG 3) | 69.5 nM | 62.8 nM | 76 nM |  |  | 
AAAAGACAAAGAAAACAUGAGGAUCACCCAUGUGGCGUGACACAGGAUAUCCACGCUACAUUGCAGGAGAAGGGUGACAUGCAC [Ensora] (Eterna round: R96, puzzle: Same State NG 3) | 484 nM | 273 nM | 383 nM |  |  | 
GGUGGGUUACUACCCACACAUGAGGAUCACCCAUGUAUUGGGAAGGAUAUGGUGCCUGUGUGGUACCAGAAGGUCGUGAAGGUG [SS-NG3-LRO19] (Eterna round: R96, puzzle: Same State NG 3) | 580 nM | 312 nM | 3470 nM |  |  | 
CUUUUUAAUGCAGGAUAUGAUCAACAUGAGGAUCACCCAUGUGGUGUUGUGAGUAAGGAGAGUGAUCAGAAGGGCAUCUUUUCA [SS-NG2-LRO04] (Eterna round: R96, puzzle: Same State NG 2) | 737 nM | 415 nM | 435 nM |  |  | 
ACGCAGCUGGGUAAGGAUAUCGGUGGUAAAACAUGAGGAUCACCCAUGUCCGAAGCUCGGACCUCCGAGAAGGUGCCCGGCUGCG [Soinraesar Omei Mod 7] (puzzle: Same State 2) |  |  |  |  | 6.58 nM | 
